Drawing on PMC4156074, this text covers release of bradykinin from 1-chain HMWK (20 nM) by pKal (0.15 nM) after 1 h with DX-2930, bradykinin ELISA; blocks the proteolysis of HMWK by pKal and Ki for one molecule.

The target in assay [1] is Full-length human plasma kallikrein, activated form (human) (UniProt P03952).
The target of assay [2] is pKal from cynomolgus monkey plasma (cynomolgus monkey). The assay is described as follows: enzyme inhibition (steady state, tight-binding fit); DX-2930 on purified pKal of mouse, rat, rabbit and cynomolgus monkey; apparent; data not shown.
Assay [3] has as its target Full-length human plasma kallikrein, activated form (human) (UniProt P03952). The assay is described as follows: enzyme inhibition (steady state, tight-binding fit); DX-2930 IgG (up to 10 nM, 1.5-fold dilutions) incubated 1 h at 30 °C with 1 nM pKal, free or preincubated with 600 nM 2-chain HMWK, in 20 mM Tris-HCl pH 7.5, 150 mM NaCl, 1 mM EDTA, 0.1% PEG-8000, 0.1% Triton X-100; substrate H-Pro-Phe-Arg-AMC at 10, 50 or 100 uM; Ki from Ki app by Equation 2, averaged.

Sequence of Full-length human plasma kallikrein, activated form (human) (P03952 20-390, chain 1 of 2): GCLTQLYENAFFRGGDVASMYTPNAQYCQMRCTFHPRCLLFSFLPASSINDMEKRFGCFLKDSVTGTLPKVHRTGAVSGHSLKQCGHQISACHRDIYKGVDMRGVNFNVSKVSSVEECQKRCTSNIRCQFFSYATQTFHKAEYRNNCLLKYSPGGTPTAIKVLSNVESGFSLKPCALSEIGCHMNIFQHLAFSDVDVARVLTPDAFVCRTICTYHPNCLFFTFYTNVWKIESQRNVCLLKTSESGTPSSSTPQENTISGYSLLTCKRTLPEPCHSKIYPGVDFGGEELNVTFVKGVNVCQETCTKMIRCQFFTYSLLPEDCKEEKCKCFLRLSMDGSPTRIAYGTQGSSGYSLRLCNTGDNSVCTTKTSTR
Sequence of Full-length human plasma kallikrein, activated form (human) (P03952 391-638, chain 2 of 2): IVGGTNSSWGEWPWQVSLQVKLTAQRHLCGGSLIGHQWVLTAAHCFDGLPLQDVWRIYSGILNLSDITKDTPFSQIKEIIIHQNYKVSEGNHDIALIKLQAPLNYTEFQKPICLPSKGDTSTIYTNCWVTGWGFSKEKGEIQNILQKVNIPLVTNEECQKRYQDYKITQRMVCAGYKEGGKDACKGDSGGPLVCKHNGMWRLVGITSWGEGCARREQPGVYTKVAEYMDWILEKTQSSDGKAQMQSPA

B1: DX-2930, fully human IgG1 monoclonal antibody (antibody, V domains shown)
VH: EVQLLESGGGLVQPGGSLRLSCAASGFTFSHYIMMWVRQAPGKGLEWVSGIYSSGGITVYADSVKGRFTISRDNSKNTLYLQMNSLRAEDTAVYYCAYRRIGVPRRDEFDIWGQGTMVTVSS
VL: DIQMTQSPSTLSASVGDRVTITCRASQSISSWLAWYQQKPGKAPKLLIYKASTLESGVPSRFSGSGSGTEFTLTISSLQPDDFATYYCQQYNTYWTFGQGTKVEIK
Regarding B1, in assay [1], the release of bradykinin from 1-chain HMWK (20 nM) by pKal (0.15 nM) after 1 h with DX-2930, bradykinin ELISA; blocks the proteolysis of HMWK by pKal is 1.3 nM. Besides, the Ki turned out to be 0.07 nM in assay [2] and 0.12 nM in assay [3].
